Source: patent US20220220508, “ENGINEERED CASX SYSTEMS” (Scribe Therapeutics Inc., published 2022)
Where a chain is given by its changes, count along the chain named.

T1: CasX 488
T1 chain: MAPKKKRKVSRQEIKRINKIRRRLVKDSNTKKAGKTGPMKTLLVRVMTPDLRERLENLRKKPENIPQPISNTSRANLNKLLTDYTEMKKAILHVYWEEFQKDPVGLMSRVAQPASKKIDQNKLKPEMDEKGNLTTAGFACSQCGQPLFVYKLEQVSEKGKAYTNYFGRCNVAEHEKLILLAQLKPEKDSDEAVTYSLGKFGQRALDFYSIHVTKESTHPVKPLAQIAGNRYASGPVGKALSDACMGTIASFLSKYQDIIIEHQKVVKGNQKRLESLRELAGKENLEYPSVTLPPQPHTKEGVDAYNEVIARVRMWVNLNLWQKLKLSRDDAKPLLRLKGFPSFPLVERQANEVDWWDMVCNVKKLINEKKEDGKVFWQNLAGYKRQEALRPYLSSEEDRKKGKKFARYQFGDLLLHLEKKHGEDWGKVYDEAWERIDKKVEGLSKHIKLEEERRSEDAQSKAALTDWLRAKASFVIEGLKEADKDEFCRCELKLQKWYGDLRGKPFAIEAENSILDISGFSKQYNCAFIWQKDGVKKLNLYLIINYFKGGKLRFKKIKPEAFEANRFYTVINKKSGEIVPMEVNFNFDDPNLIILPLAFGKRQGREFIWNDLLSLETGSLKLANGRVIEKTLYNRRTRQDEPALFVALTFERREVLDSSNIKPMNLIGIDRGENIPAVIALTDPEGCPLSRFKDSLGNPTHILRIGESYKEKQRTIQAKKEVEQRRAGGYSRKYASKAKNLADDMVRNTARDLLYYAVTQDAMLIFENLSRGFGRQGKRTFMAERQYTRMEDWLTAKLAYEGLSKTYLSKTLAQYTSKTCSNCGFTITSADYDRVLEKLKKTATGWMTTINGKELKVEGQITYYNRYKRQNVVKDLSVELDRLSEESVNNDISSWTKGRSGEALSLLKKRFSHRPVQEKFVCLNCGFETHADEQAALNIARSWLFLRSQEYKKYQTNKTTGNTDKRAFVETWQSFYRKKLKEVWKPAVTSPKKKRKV

T2: CasX 491
T2 chain: T1 chain with F410L, I669V

T3: CasX 438 (in cells) (Planctomycetes)
T3 chain: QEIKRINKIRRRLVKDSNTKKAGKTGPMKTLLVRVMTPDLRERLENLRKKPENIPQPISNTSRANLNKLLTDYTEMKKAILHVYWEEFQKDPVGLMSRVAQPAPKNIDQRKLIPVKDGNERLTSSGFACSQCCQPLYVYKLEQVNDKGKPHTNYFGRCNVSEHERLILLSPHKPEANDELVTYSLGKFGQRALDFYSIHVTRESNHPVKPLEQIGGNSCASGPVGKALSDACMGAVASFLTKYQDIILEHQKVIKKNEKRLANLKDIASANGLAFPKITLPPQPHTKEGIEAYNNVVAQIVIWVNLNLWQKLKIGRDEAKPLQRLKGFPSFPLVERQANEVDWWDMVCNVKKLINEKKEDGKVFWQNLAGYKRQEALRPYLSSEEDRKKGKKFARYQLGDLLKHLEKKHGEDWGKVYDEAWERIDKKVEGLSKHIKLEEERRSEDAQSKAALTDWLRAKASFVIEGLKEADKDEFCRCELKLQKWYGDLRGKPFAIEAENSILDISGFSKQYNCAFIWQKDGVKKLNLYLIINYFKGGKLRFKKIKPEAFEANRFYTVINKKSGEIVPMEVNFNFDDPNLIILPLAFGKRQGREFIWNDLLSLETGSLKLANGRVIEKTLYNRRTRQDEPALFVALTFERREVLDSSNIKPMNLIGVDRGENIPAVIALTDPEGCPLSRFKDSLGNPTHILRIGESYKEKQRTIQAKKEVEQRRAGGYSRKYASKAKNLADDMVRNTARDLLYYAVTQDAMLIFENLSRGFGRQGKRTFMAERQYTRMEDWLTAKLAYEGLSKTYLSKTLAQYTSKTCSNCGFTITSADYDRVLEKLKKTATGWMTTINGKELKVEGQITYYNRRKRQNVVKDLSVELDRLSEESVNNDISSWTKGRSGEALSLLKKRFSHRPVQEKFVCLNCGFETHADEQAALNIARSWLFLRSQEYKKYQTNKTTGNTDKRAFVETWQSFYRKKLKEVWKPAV

B1: sgRNA 174.7.37 ; 7.37 TTC PAM target (ssRNA ; dsDNA)
RNA: ACUGGCGCUUUUAUCUGAUUACUUUGAGAGCCAUCACCAGCGACUAUGUCGUAGUGGGUAAAGCUCCCUCUUCGGAGGGAGCAUCAAAGGGCCGAGAUGUCUCGCUCCG
DNA 1: TGAAGCTGACAGCATTCGGGCCGAGATGTCTCGCTCCGTGGCCTTAGCTGTGCTCGCGCT
DNA 2: AGCGCGAGCACAGCTAAGGCCACGGAGCGAGACATCTCGGCCCGAATGCTGTCAGCTTCA
B2: scaffold 174 + spacer 4.76 ; EGFP E6/4.76 target (ssRNA ; dsDNA)
RNA: ACUGGCGCUUUUAUCUGAUUACUUUGAGAGCCAUCACCAGCGACUAUGUCGUAGUGGGUAAAGCUCCCUCUUCGGAGGGAGCAUCAAAGUGUGGUCGGGGUAGCGGCUG
DNA 1: TGTGGTCGGGGTAGCGGCTG
DNA 2: CAGCCGCTACCCCGACCACA
B3: scaffold 174 + spacer 4.77 ; EGFP E7/4.77 target (ssRNA ; dsDNA)
RNA: ACUGGCGCUUUUAUCUGAUUACUUUGAGAGCCAUCACCAGCGACUAUGUCGUAGUGGGUAAAGCUCCCUCUUCGGAGGGAGCAUCAAAGUCAAGUCCGCCAUGCCCGAA
DNA 1: TCAAGTCCGCCATGCCCGAA
DNA 2: TTCGGGCATGGCGGACTTGA

What was measured:
[1] = target: CasX 438 (Planctomycetes); assay: cleavage_in_vitro; kcleave; TTC PAM; conditions: tags: N-terminal SV40 NLS, C-terminal NLS, TEV site and twin Strep tag; label: fluorescent
Experimental: (§1) In vitro cleavage assays were performed essentially as described in Example 19, using CasX 2 (SED ID NO:2), CasX 119, and CasX 438 complexed with single guide 174 with spacer 7.37 targeted against B2M. Fluorescently labeled dsDNA targets that would be complementary with a 7.37 spacer and either a ITC, CTC, CTC, or ATC PAM were used (The DNA sequences used to generate each dsDNA substrate are shown in Table 29. The PAM sequences for each are bolded. TS—target strand. NTS—Non-target strand). Target DNA was incubated with a 20-fold excess of the indicated RNP and the amount of cleaved target was determined at the indicated. time points. The monophasic fit of the combined replicates is shown. During the assay, samples were taken at 0.25, 0.5, 1, 2, 5, 10, 30, and 60 minutes. Gels were imaged with an Amersham Typhoon and quantified using the IQTL 8,2 software. Apparent first-order rate constants for non-target strand cleavage (kcleave) were determined for each Casx:sgRNA complex on each target. Rate constants for targets with non-TTC PAM were compared to the TIC PAM target to determine whether the relative preference for each PAM was altered for a given CasX variant. The results are shown in FIG. 73 (the monophasic fit of the combined replicates is shown) and Table 30. […]

[2] = target: CasX 119 (L379R+A708K+[P793]) (Planctomycetes); assay: cleavage_in_vitro; kcleave; TTC PAM; conditions: tags: N-terminal SV40 NLS, C-terminal NLS, TEV site and twin Strep tag; label: fluorescent
Experimental: as §1

[3] = target: T1, CasX 488; assay: cell_activity; lentiviral iGFP editing; TTC PAM
[4] = target: T2, CasX 491; assay: cell_activity; lentiviral iGFP editing; TTC PAM
[5] = target: T3, CasX 438 (in cells); assay: cell_activity; lentiviral iGFP editing; TTC PAM

CasX 119 (L379R+A708K+[P793]) (Planctomycetes), sequence (chain, as listed by the source L379R A708K L379R A708K): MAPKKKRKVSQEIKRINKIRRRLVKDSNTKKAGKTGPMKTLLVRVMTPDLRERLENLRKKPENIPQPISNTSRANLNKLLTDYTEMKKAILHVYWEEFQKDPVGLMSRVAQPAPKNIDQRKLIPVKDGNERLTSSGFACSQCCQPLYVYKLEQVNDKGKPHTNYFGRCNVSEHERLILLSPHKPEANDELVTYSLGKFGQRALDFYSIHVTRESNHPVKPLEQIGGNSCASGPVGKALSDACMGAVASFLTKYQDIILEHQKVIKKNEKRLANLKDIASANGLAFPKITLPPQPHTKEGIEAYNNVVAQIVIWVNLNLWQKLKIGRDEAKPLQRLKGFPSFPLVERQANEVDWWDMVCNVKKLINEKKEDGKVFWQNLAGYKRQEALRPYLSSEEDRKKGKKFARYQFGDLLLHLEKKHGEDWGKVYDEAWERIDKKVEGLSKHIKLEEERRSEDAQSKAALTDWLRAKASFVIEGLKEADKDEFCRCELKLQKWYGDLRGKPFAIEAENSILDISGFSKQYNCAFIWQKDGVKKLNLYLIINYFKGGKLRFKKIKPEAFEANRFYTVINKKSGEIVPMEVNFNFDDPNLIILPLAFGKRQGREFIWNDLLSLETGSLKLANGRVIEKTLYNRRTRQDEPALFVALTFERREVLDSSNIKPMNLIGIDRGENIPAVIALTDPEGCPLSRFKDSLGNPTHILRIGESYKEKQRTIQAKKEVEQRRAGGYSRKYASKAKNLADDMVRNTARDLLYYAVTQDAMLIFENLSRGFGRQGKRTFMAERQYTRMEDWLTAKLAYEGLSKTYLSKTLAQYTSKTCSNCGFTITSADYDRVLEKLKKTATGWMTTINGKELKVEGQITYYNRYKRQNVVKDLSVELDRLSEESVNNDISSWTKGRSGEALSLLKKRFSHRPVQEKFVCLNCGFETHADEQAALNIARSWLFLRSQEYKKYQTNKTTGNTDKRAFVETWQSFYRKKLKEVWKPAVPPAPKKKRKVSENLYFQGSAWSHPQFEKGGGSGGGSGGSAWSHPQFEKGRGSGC
CasX 438 (Planctomycetes), sequence (chain, as listed by the source): as the sequence (chain, as listed by the source L379R A708K L379R A708K) above, with F408L, L413K, I667V, Y865R counted along it

Row | Binder | activity [1] | activity [2] | binding signal [3] | binding signal [4] | binding signal [5]
1 | B1 | 4.94 min⁻¹ | 8.33 min⁻¹ |  |  | 
2 | B2 |  |  | 1.41 fold vs CasX 119 | 1.55 fold vs CasX 119 | 1.22 fold vs CasX 119
3 | B3 |  |  | 2.43 fold vs CasX 119 | 3.03 fold vs CasX 119 | 
